Data reported in article PMC5112522.
pKd: −log10 of the molar value.

How the values were obtained:
[1] = target: Recombinant gp120 protein from HIV-1 strain IIIB (HIV-1 strain IIIB) (UniProt P04578); assay: SPR; gp120 (115 RUs) and gp41 (45 RUs) amine-coupled on a CM4 chip; lectins as analytes (two-fold dilutions, 0-20 nM HHA, 0-4000 nM Ld WCFS1, 0-1000 nM Ld CMPG5300); 1:1 binding model, apparent KD; 25 °C, Biacore T200, HBS-P pH 7.4 (10 mM HEPES, 150 mM NaCl, 0.05% P20) with 10 mM CaCl2
[2] = target: Recombinant gp41 protein from HIV-1 (HXB2 strain) (HIV-1 (HXB2 strain)) (UniProt P04578); assay: as above
[3] = target: Recombinant gp120 protein from HIV-1 strain IIIB (HIV-1 strain IIIB) (UniProt P04578)

Substance | pKd [1] | koff [1] | kon [1] | pKd [2] | koff [2] | kon [2] | inhibition of HIV-1 infection in human CD4+ T-lymphocytic C8166 cell and Raji DCSIGN cultures (data not shown) [3]
Hippeastrum hybrid (amaryllis) lectin (HHA) (natural protein) | 8.88 | 0.00219 s⁻¹ | 1.66e+06 M⁻¹ s⁻¹ | 9.08 | 0.00229 s⁻¹ | 2.75e+06 M⁻¹ s⁻¹ | 
Lectin domain of Msa (Lp_1229) of Lactobacillus plantarum WCFS1 (from UniProt F9UN23 1-1010) (domain or fragment) | 5.20 | 0.0164 s⁻¹ | 2620 M⁻¹ s⁻¹ | 5.48 | 0.0236 s⁻¹ | 7150 M⁻¹ s⁻¹ | 
Lectin domain of Msl (Cmpg5300.05_29) of Lactobacillus plantarum CMPG5300 (domain or fragment) | 5.73 | 0.0564 s⁻¹ | 30500 M⁻¹ s⁻¹ | 5.79 | 0.0288 s⁻¹ | 22900 M⁻¹ s⁻¹ | > 200 µg/mL
